Source: patent US20190077860A1 (EISAI R AND D MANAGEMENT, published 2019)
Changes are numbered by the printed parent chain.

T1: human EphB4 extracellular region-SEAP-His protein (human, UniProt P54760 16-539)
T1 construct: extracellular domain; also called hEphB4-SEAP-His
T1 sequence (looked up): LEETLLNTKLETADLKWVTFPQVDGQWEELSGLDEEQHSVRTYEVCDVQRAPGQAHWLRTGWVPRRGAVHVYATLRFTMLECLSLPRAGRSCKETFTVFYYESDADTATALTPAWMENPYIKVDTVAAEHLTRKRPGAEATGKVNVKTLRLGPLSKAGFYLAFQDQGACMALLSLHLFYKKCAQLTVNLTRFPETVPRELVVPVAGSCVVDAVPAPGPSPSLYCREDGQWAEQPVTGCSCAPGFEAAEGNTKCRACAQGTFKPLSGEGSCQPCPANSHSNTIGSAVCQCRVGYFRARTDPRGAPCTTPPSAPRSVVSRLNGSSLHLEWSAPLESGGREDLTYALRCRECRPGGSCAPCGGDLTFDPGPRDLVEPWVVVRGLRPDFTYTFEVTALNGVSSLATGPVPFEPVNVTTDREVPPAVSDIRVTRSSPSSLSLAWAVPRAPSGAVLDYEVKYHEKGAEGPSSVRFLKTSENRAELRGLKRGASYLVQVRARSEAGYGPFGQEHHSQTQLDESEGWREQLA

T2: human EphA7 extracellular region-SEAP-His protein (human, UniProt Q15375 28-555)
T2 construct: extracellular domain; also called hEphA7-SEAP-His
T2 sequence (looked up): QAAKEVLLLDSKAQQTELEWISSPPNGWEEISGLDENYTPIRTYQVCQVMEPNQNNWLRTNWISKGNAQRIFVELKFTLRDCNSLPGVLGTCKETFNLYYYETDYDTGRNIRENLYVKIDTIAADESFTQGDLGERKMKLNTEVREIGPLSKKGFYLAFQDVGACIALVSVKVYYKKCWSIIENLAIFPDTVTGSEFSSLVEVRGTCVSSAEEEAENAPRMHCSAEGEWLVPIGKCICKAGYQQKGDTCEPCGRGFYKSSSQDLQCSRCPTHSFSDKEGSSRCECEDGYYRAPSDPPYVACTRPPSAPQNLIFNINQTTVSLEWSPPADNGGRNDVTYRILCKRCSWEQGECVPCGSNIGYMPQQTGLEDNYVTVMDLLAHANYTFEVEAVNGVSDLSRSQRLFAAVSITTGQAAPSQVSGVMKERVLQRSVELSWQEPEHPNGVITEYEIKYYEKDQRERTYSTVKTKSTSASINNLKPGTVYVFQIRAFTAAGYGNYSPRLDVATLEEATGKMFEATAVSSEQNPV

T3: human EphB6 extracellular region-SEAP-His protein (human, UniProt O15197 32-594)
T3 construct: extracellular domain; also called hEphB6-SEAP-His
T3 sequence (looked up): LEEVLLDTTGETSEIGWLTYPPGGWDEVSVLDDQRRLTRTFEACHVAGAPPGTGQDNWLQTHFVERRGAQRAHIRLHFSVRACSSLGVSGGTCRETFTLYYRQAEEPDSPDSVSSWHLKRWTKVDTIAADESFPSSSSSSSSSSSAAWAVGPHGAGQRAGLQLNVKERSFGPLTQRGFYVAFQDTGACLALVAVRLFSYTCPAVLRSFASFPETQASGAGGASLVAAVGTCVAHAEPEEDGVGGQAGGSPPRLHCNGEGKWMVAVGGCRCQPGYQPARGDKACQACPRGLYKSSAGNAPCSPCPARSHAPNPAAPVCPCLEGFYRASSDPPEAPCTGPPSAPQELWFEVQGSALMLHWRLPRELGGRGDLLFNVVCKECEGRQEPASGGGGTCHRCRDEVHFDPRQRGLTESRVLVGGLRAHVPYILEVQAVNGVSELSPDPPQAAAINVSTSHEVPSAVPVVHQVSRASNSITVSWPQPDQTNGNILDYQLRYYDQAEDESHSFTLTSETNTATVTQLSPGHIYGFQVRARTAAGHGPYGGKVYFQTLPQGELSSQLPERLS

T4: human EphA8 extracellular region-SEAP-His protein (human, UniProt P29322 28-542)
T4 construct: extracellular domain; also called hEphA8-SEAP-His
T4 sequence (looked up): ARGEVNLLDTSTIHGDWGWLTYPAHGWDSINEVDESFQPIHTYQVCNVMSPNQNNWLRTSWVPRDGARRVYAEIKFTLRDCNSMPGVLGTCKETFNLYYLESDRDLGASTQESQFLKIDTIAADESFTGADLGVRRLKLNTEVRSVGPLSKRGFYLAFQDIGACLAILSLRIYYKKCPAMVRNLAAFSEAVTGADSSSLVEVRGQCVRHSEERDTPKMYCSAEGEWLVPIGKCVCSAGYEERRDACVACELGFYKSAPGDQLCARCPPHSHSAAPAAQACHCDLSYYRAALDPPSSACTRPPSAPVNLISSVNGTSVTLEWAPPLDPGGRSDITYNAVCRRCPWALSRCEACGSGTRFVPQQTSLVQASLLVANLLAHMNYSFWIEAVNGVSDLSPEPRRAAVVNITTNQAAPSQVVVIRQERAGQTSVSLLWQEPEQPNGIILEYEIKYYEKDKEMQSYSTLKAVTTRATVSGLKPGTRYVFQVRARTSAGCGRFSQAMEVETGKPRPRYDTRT

B1: humanized antibody No. 141 (antibody, human IgG2)
heavy: QVQLVQSGSELKKPGASVKVSCKASGYTFTDYSMHWVRQAPGQGLEWMGWINTETGEPTYADDFKGRFVFSLDTSVSTAYLQISSLKAEDTAVYYCARIPLYYYGSRYWYFDVWGQGTTVTVSSASTKGPSVFPLAPSSRSTSESTAALGCLVKDYFPEPVTVSWNSGALTSGVHTFPAVLQSSGLYSLSSVVTVPSSNFGTQTYTCNVDHKPSNTKVDKTVERKSCVECPPCPAPPAAAPSVFLFPPKPKDTLMISRTPEVTCVVVDVSHEDPEVQFNWYVDGVEVHNAKTKPREEQFNSTFRVVSVLTVVHQDWLNGKEYKCKVSNKGLPAPIEKTISKTKGQPREPQVYTLPPSREEMTKNQVSLTCLVKGFYPSDIAVEWESNGQPENNYKTTPPMLDSDGSFFLYSKLTVDKSRWQQGNVFSCSVMHEALHNHYTQKSLSLSPG
light: DIQMTQSPSSLSASVGDRVTITCRASENIYRNLAWYQQKPGKAPKLLVYAATNLADGVPSRFSGSGSGTDYTLTISSLQPEDFATYYCQHFWGTPWTFGQGTKVEIKRTVAAPSVFIFPPSDEQLKSGTASVVCLLNNFYPREAKVQWKVDNALQSGNSQESVTEQDSKDSTYSLSSTLTLSKADYEKHKVYACEVTHQGLSSPVTKSFNRGEC
notes: human Ig kappa; also called L1-4/HK1
B2: humanized antibody No. 144 (antibody, human IgG2)
heavy: B1 heavy
light: B1 light with K45Q, V48L
notes: human Ig kappa; also called L1-6/HK1
B3: humanized antibody No. 145 (antibody, human IgG2)
heavy: B1 heavy with E46K
light: B1 light with V48L, P80S
notes: human Ig kappa; also called L1-5/HK2
B4: humanized antibody No. 153 (antibody, human IgG2)
heavy: B1 heavy with E46K, D62Q, D63G, K65T
light: B1 light with V48L, P80S
notes: human Ig kappa; also called L1-5/HA2
B5: humanized antibody No. 143 (antibody, human IgG2)
heavy: B1 heavy with V2I, E46K
light: B1 light
notes: human Ig kappa; also called L1-4/HK4
B6: humanized antibody No. 154 (antibody, human IgG2)
heavy: B1 heavy
light: B1 light with V48L, P80S
notes: human Ig kappa; also called L1-5/HK1
B7: humanized antibody No. 155 (antibody, human IgG2)
heavy: B1 heavy with V2I, E46K
light: B1 light with V48L, P80S
notes: human Ig kappa; also called L1-5/HK4
B8: humanized antibody No. 156 (antibody, human IgG2)
heavy: B1 heavy with V2I, E46K, D62Q, D63G, K65T
light: B1 light with K45Q, V48L
notes: human Ig kappa; also called L1-6/HA4
B9: humanized antibody No. 158 (antibody, human IgG2)
heavy: B1 heavy with E46K, D62Q, D63G, K65T
light: B1 light with K45Q, V48L
notes: human Ig kappa; also called L1-6/HA2
B10: humanized antibody No. 152 (antibody, human IgG2)
heavy: B1 heavy with D62Q, D63G, K65T
light: B1 light with V48L, P80S
notes: human Ig kappa; also called L1-5/HA1
B11: humanized antibody No. 142 (antibody, human IgG2)
heavy: B1 heavy with E46K
light: B1 light
notes: human Ig kappa; also called L1-4/HK2
B12: humanized antibody No. 151 (antibody, human IgG2)
heavy: B1 heavy with V2I, E46K, D62Q, D63G, K65T
light: B1 light with V48L, P80S
notes: human Ig kappa; also called L1-5/HA4
B13: humanized antibody No. 157 (antibody, human IgG2)
heavy: B1 heavy with D62Q, D63G, K65T
light: B1 light with K45Q, V48L
notes: human Ig kappa; also called L1-6/HA1

Biological target: T1, human EphB4 extracellular …
Assay: ELISA

A450 as % of hEphA4-SEAP-His | Binder
5.4% | B1
5.7% | B2
6.7% | B3
6% | B4
5.9% | B5
6.4% | B6
5.7% | B7
5.6% | B8
6.5% | B9
5.9% | B10
5.7% | B11
7.4% | B12
6.5% | B13

Biological target: T2, human EphA7 extracellular …
Assay: ELISA

A450 as % of hEphA4-SEAP-His | Binder
5.3% | B1
5.6% | B2
6.3% | B3
6.2% | B4
5.8% | B5
6.3% | B6
5.6% | B7
5.6% | B8
6.3% | B9
5.7% | B10
5.5% | B11
6.8% | B12
6% | B13

Biological target: T5, human EphA5 extracellular region-SEAP-His protein (human, UniProt P54756 25-573)
T5 construct: extracellular domain; also called hEphA5-SEAP-His
Assay: ELISA

T5 sequence (P54756 25-573): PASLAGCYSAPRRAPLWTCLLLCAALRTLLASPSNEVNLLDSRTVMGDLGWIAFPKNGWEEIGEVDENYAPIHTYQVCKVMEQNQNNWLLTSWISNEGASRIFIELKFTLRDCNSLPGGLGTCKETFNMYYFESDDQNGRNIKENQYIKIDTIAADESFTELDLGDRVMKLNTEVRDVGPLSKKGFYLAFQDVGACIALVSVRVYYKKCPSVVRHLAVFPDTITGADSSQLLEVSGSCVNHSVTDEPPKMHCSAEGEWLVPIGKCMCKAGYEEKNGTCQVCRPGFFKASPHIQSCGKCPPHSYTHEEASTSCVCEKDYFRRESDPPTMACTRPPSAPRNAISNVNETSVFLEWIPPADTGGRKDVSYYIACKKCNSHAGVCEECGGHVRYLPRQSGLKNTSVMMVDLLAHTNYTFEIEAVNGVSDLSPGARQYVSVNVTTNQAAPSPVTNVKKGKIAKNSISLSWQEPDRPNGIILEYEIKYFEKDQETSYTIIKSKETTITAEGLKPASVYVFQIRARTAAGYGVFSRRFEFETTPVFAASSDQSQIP

A450 as % of hEphA4-SEAP-His | Binder
5.3% | B1
5.6% | B2
6.6% | B3
6.1% | B4
6.1% | B5
6.3% | B6
5.6% | B7
5.7% | B8
6.7% | B9
5.8% | B10
5.7% | B11
7% | B12
6.1% | B13

Biological target: T6, human EphA2 extracellular region-SEAP-His protein (human, UniProt P29317 24-537)
T6 construct: extracellular domain; also called hEphA2-SEAP-His
Assay: ELISA

T6 sequence (P29317 24-537): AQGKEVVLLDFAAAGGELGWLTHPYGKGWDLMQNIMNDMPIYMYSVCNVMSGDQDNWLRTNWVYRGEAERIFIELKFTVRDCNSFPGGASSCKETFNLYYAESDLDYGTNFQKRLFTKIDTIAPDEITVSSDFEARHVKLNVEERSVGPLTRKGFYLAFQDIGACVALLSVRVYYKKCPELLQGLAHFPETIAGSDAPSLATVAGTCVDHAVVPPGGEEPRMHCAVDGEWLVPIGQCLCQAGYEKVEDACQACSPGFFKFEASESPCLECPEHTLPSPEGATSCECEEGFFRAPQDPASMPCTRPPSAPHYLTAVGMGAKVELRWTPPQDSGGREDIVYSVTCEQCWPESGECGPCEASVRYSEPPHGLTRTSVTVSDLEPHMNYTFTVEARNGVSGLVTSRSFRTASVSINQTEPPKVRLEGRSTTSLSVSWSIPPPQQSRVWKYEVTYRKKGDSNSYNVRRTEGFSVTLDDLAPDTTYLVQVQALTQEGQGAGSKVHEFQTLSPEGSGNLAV

A450 as % of hEphA4-SEAP-His | Binder
5.2% | B1
5.6% | B2
6.5% | B3
6% | B4
5.7% | B5
6.2% | B6
5.5% | B7
5.5% | B8
6.7% | B9
5.8% | B10
5.6% | B11
6.9% | B12
6.3% | B13

Biological target: T3, human EphB6 extracellular …
Assay: ELISA

A450 as % of hEphA4-SEAP-His | Binder
5.4% | B1
5.9% | B2
6.6% | B3
6.2% | B4
5.6% | B5
6.4% | B6
5.6% | B7
5.7% | B8
6.3% | B9
5.9% | B10
5.6% | B11
7.1% | B12
6.3% | B13

Biological target: T4, human EphA8 extracellular …
Assay: ELISA

A450 as % of hEphA4-SEAP-His | Binder
5.5% | B1
5.8% | B2
6.6% | B3
6.1% | B4
6% | B5
5.5% | B6
5.5% | B7
5.5% | B8
6.4% | B9
6% | B10
5.7% | B11
6.9% | B12
6% | B13
